Km, kcat and kcat/Km data for two proteins are collected here from publication PMC5675407, “Sugar analog synthesis by in vitro biocatalytic cascade: A comparison of alternative enzyme complements for dihydroxyacetone phosphate production as a precursor to rare chiral sugar synthesis” (PLoS ONE, 2017).

Common to all, as to experiment: purified protein
Substrate in data set [1]: CC(=O)OP(=O)(O)O
In kind it is biochemical, Mycolicibacterium smegmatis. Conditions: ADP in excess, Mg2+, room temperature, buffer as for glycerol kinase (pH 9.2). The text has this: (§1) HPLC of ADP and ATP on AceKMs

Substrate in data set [2]: Nc1ncnc2c1ncn2[C@@H]1O[C@H](COP(=O)(O)OP(=O)(O)O)[C@@H](O)[C@H]1O
In kind it is biochemical, Mycolicibacterium smegmatis. As to conditions: acetyl phosphate in excess, Mg2+, room temperature, buffer as for glycerol kinase (pH 9.2).
Excerpt: as §1

Substrate in data set [3]: Nc1ncnc2c1ncn2[C@@H]1O[C@H](COP(=O)(O)OP(=O)(O)OP(=O)(O)O)[C@@H](O)[C@H]1O
In kind it is biochemical, Clostridium beijerinckii. Conditions: glycerol in excess, 10 mM MgCl2, 50 mM NaHCO3 pH 9.2, room temperature. The text has this: (§2) HPLC of ADP and ATP on GlpKCb

Substrate in data set [4]: OCC(O)CO
In kind it is biochemical, Clostridium beijerinckii. As to conditions: ATP in excess, 10 mM MgCl2, 50 mM NaHCO3 pH 9.2, room temperature.
Excerpt: as §2

B1: AceKMs (Mycolicibacterium smegmatis MC2 155) (protein)
chain: MTVLVVNSGSSSLKYAVVRPASGEFLADGIIEEIGSGAVPDHDAALRAAFDELAAAGLHLEDLDLKAVGHRMVHGGKTFYKPSVVDDELIAKARELSPLAPLHNPPAIKGIEVARKLLPDLPHIAVFDTAFFHDLPAPASTYAIDRELAETWHIKRYGFHGTSHEYVSQQAAIFLDRPLESLNQIVLHLGNGASASAVAGGKAVDTSMGLTPMEGLVMGTRSGDIDPGVIMYLWRTAGMSVDDIESMLNRRSGVLGLGGASDFRKLRELIESGDEHAKLAYDVYIHRLRKYIGAYMAVLGRTDVISFTAGVGENVPPVRRDALAGLGGLGIEIDDALNSAKSDEPRLISTPDSRVTVLVVPTNEELAIARACVGVV
notes: recombinant, His-tagged (pDEST17 or pETCC2), E. coli
For B1, in data set [1], the Km was 390 ± 8 µM, the kcat amounted to 1103 s⁻¹ and the kcat/Km was found to be 2.8e+06 M⁻¹ s⁻¹. For the same protein, in data set [2], the Km was 113 ± 9 µM, the kcat was 1100 s⁻¹ and the kcat/Km was determined as 9.8e+06 M⁻¹ s⁻¹.

B2: GlpKCb (Clostridium beijerinckii NCIMB 8052) (protein)
chain: MKKYILALDQGTTSSRAIIFDKEQNILGVSQKEFTQIYPNQGWVEHNPLEIWASQYGVLQEVIAKTNITQEEVAAIGITNQRETTIVWDKNTGEPVYNAIVWQCRRTAGIIEELKLDKEFSEYVKENTGLLLDAYFSATKIKWILDNVEGARERAEKGELLFGTVDTWLVWKLTNGKVHVTDYTNASRTMLYNIKELRWDERILEKLNIPKSMLPEVKNSSEVYGYTNLGGTGGVRVPIAGMAGDQQCALFGQTCFEEGSVKNTYGTGCFLLMNTGEKMIHSKNGLVSTIAVGIDGKVQYALEGSVFVGGAVIQWIRDELKLVTDAADTEYFAQKVEDNGGVYVVPAFTGLGAPYWDMYARGAIFGLTRGANRNHIIRAALESIAYQSKDLIDAMQEDAGCKLTRLKVDGGASRNNLLMQFQADITGAEVVRPIITETTALGAAYLAGLAVGFWKSKEEIAEKWAVSQSYSPNLAEEKKEKLYKGWKKAVKRAEGWEEE
notes: recombinant, His-tagged (pDEST17 or pETCC2), E. coli, Ni and size exclusion purified
For the protein B2, in data set [3], the Km came out at 135 ± 16 µM, the kcat came to 93 s⁻¹ and the kcat/Km is 690000 M⁻¹ s⁻¹. Also, in data set [4], the Km came out at 356 ± 27 µM, the catalytic constant (kcat) stood at 93 s⁻¹ and the kcat/Km turned out to be 260000 M⁻¹ s⁻¹.

A word on the Km: it is the concentration of substrate that gives half-maximal velocity. A word on the kcat: it is the maximal rate divided by the concentration of active sites. By kcat/Km is commonly meant the second-order rate constant that governs catalysis at low substrate concentration.
